{"source": "the RNAGym collection of RNA variant scans (doi:10.1093/molbev/msab373)", "parents": {"B1": {"name": "Azoarcus group I ribozyme (parent)", "chain": "GUGCCUUGCGCCGGGAAACCACGCAAGGGAUGGUGUCAAAUUCGGCGAAACCUAAGCGCCCGCCCGGGCGUAUGGCAACGCCGAGCCAAGCUUCGGCGCCUGCGCCGAUGAAGGUGUAGAGACUAGACGGCACCCACCUAAGGCAAACGCUAUGGUGAAGGCAUAGUCCAGGGAGUGGCGAAAGUCACACAAACCGG"}}, "data": [{"variants_of": "B1", "experiment": "reverse-splicing fitness (ratio to wild type); higher = more active; in vitro selection; Mg2+ level not given", "procedure,_shortened": "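An in vitro group I ribozyme library with randomized positions was T7-transcribed and gel-purified. In triplicate, 10 pmol RNA in EPPS pH 7.5 was reacted with 50 pmoles of a 30-nt RNA substrate for 1 h at 37 °C across several added MgCl2 levels (1–48 mM), then stopped with EDTA. Products were reverse transcribed from a substrate-complementary primer, PCR-amplified and sequenced (HiSeq 4000). Fitness is a variant's read proportion after selection over that before, normalised to wild type.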", "values": [{"variant": "A111C A120U A145U C150G C169U U176G", "reverse-splicing fitness": 0.00279}, {"variant": "A111C A120U A145C C150A C169U U176C", "reverse-splicing fitness": 0.00283}, {"variant": "A111C A120U A145C C150A C169U U176A", "reverse-splicing fitness": 0.00457}, {"variant": "A111C A120U A145C C150A C169U U176G", "reverse-splicing fitness": 0.00242}, {"variant": "A111C A145C C150G C169G", "reverse-splicing fitness": 0.0102}, {"variant": "A111C A145C C150G C169U", "reverse-splicing fitness": 0.018}, {"variant": "A111C A145C C150G C169A", "reverse-splicing fitness": 0.00983}, {"variant": "A111C A145C C150U C169A", "reverse-splicing fitness": 0.0114}, {"variant": "A111C A145C C150U C169G", "reverse-splicing fitness": 0.0204}, {"variant": "A111C A145C C150U C169U", "reverse-splicing fitness": 0.032}, {"variant": "A111C A120U C150G", "reverse-splicing fitness": 0.0546}, {"variant": "A111C A120U C150U", "reverse-splicing fitness": 0.416}, {"variant": "A111C A120U C150A", "reverse-splicing fitness": 0.0711}, {"variant": "A111C A120U A145U C169U U176G", "reverse-splicing fitness": 0.00286}, {"variant": "A111C A120U A145U C169U U176C", "reverse-splicing fitness": 0.0216}, {"variant": "A111C A120U A145U C169U U176A", "reverse-splicing fitness": 0.0121}, {"variant": "A111C A120U C150U U176G", "reverse-splicing fitness": 0.0367}, {"variant": "A111C A120U C150U U176A", "reverse-splicing fitness": 0.145}, {"variant": "A111C A120U C150U U176C", "reverse-splicing fitness": 0.194}, {"variant": "A111C A120U A145C C150G U176C", "reverse-splicing fitness": 0.0215}, {"variant": "A111C A120U A145C C150G U176A", "reverse-splicing fitness": 0.0207}, {"variant": "A111C A120U A145C C150G U176G", "reverse-splicing fitness": 0.00459}, {"variant": "A111C A120U A145U C150A C169A U176A", "reverse-splicing fitness": 0.00258}, {"variant": "A111C A120U A145U C150A C169A U176C", "reverse-splicing fitness": 0.00244}, {"variant": "A111C A120U A145U C150A C169A U176G", "reverse-splicing fitness": 0.00209}, {"variant": "A111C A145C C150U C169G U176A", "reverse-splicing fitness": 0.0249}, {"variant": "A111C A145C C150U C169G U176G", "reverse-splicing fitness": 0.00689}, {"variant": "A111C A145C C150U C169G U176C", "reverse-splicing fitness": 0.0197}, {"variant": "A111C A120U A145G C150G C169G", "reverse-splicing fitness": 0.0117}, {"variant": "A111C A120U A145G C150G C169U", "reverse-splicing fitness": 0.0135}, {"variant": "A111C A120U A145G C150G C169A", "reverse-splicing fitness": 0.00873}, {"variant": "A111C A120U A145C C150U C169U U176G", "reverse-splicing fitness": 0.00251}, {"variant": "A111C A120U A145C C150U C169U U176C", "reverse-splicing fitness": 0.00414}, {"variant": "A111C A120U A145C C150U C169U U176A", "reverse-splicing fitness": 0.00478}, {"variant": "A111C A120U A145U C150G", "reverse-splicing fitness": 0.0737}, {"variant": "A111C A120U A145U C150A", "reverse-splicing fitness": 0.0636}, {"variant": "A111C A120U A145U C150U", "reverse-splicing fitness": 0.491}, {"variant": "A111C A120U A145C C150A C169A U176C", "reverse-splicing fitness": 0.00233}, {"variant": "A111C A120U A145C C150A C169A U176A", "reverse-splicing fitness": 0.00259}, {"variant": "A111C A120U A145C C150A C169A U176G", "reverse-splicing fitness": 0.00226}, {"variant": "A111C A120U A145U C150G U176C", "reverse-splicing fitness": 0.0313}, {"variant": "A111C A120U A145U C150G U176G", "reverse-splicing fitness": 0.00462}, {"variant": "A111C A120U A145U C150G U176A", "reverse-splicing fitness": 0.0214}, {"variant": "A111C A120U A145U C150U C169A U176C", "reverse-splicing fitness": 0.00252}, {"variant": "A111C A120U A145U C150U C169A U176G", "reverse-splicing fitness": 0.00217}, {"variant": "A111C A120U A145U C150U C169A U176A", "reverse-splicing fitness": 0.00293}, {"variant": "A111C A145C C169G U176G", "reverse-splicing fitness": 0.00691}, {"variant": "A111C A145C C169G U176A", "reverse-splicing fitness": 0.0324}, {"variant": "A111C A145C C169G U176C", "reverse-splicing fitness": 0.0318}, {"variant": "A111C A120U A145C C169G U176G", "reverse-splicing fitness": 0.0018}, {"variant": "A111C A120U A145C C169G U176A", "reverse-splicing fitness": 0.00676}, {"variant": "A111C A120U A145C C169G U176C", "reverse-splicing fitness": 0.00626}, {"variant": "A111C A120U A145G C150U U176G", "reverse-splicing fitness": 0.0303}, {"variant": "A111C A120U A145G C150U U176A", "reverse-splicing fitness": 0.184}, {"variant": "A111C A120U A145G C150U U176C", "reverse-splicing fitness": 0.239}, {"variant": "A111C A145C C150A U176A", "reverse-splicing fitness": 0.0687}, {"variant": "A111C A145C C150A U176C", "reverse-splicing fitness": 0.104}, {"variant": "A111C A145C C150A U176G", "reverse-splicing fitness": 0.0323}, {"variant": "A111C A145G C150A C169U U176C", "reverse-splicing fitness": 0.019}, {"variant": "A111C A145G C150A C169U U176A", "reverse-splicing fitness": 0.0185}, {"variant": "A111C A145G C150A C169U U176G", "reverse-splicing fitness": 0.00843}, {"variant": "A111C A120U A145U C150A U176C", "reverse-splicing fitness": 0.0354}, {"variant": "A111C A120U A145U C150A U176G", "reverse-splicing fitness": 0.0123}, {"variant": "A111C A120U A145U C150A U176A", "reverse-splicing fitness": 0.0343}, {"variant": "A111C A145C C169A U176G", "reverse-splicing fitness": 0.007}, {"variant": "A111C A145C C169A U176C", "reverse-splicing fitness": 0.0113}, {"variant": "A111C A145C C169A U176A", "reverse-splicing fitness": 0.0151}, {"variant": "A111C A120U A145G C150A", "reverse-splicing fitness": 0.099}, {"variant": "A111C A120U A145G C150U", "reverse-splicing fitness": 0.549}, {"variant": "A111C A120U A145G C150G", "reverse-splicing fitness": 0.0721}, {"variant": "A111C A120U A145U C150G C169A", "reverse-splicing fitness": 0.00366}, {"variant": "A111C A120U A145U C150G C169U", "reverse-splicing fitness": 0.00794}, {"variant": "A111C A120U A145U C150G C169G", "reverse-splicing fitness": 0.00663}, {"variant": "A111C A120U A145U", "reverse-splicing fitness": 0.629}, {"variant": "A111C A120U A145G", "reverse-splicing fitness": 0.675}, {"variant": "A111C A120U A145C", "reverse-splicing fitness": 0.598}, {"variant": "A111C A145C C150A C169G U176A", "reverse-splicing fitness": 0.0274}, {"variant": "A111C A145C C150A C169G U176G", "reverse-splicing fitness": 0.00627}, {"variant": "A111C A145C C150A C169G U176C", "reverse-splicing fitness": 0.0189}, {"variant": "A111C A120U C150G C169G U176A", "reverse-splicing fitness": 0.00481}, {"variant": "A111C A120U C150G C169G U176G", "reverse-splicing fitness": 0.00234}, {"variant": "A111C A120U C150G C169G U176C", "reverse-splicing fitness": 0.0039}, {"variant": "A111C A145C C150U C169A U176C", "reverse-splicing fitness": 0.00847}, {"variant": "A111C A145C C150U C169A U176A", "reverse-splicing fitness": 0.0139}]}]}
